± gives the standard deviation.
Test: protein stability index of a GFP-peptide fusion (GPS, HEK-293T) (PSI 1-6); higher = more stable
[1] = treatment: DMSO, c terminus: a fixed tail appended
[2] = treatment: MLN4924 1 uM, 8 h, c terminus: a fixed tail appended
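Note: 24-mer peptide tiles fused after GFP, lentivirally expressed, FACS-sorted into six equal bins by GFP/DsRed ratio, decoded by Illumina sequencing, PSI is the read-weighted mean bin number.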

Row | Sequence | protein stability index [1] | protein stability index [2] | protein stability index (treatment: DMSO, c terminus: native) | protein stability index (treatment: MLN4924 1 uM, 8 h, c terminus: native)
1 | AYTQTQFHNLRNTLDGYGIHPKSI [NFE2L1] | 2.57 ± 0.3 | 2.34 ± 0.26 | – | –
2 | AYVLSKYQYFVCPVEYRSDVNSFV [CDS1] | 2.6 ± 0.46 | 2.68 ± 0.75 | – | –
3 | CADVILVLQERVRIFAHKIYLSTS [RHOBTB2] | 3.01 ± 0.25 | 3.02 ± 0.49 | – | –
4 | CDDYFFIAHRGERRGIGGIFFDDL [CPOX] | 2.16 ± 0.31 | 1.96 ± 0.45 | – | –
5 | CEKYLPGYYSEKLEAIQLDGEILF [TBC1D10A] | 2.14 ± 0.19 | 2.12 ± 0.24 | – | –
6 | CFVLFSLTHTHTHTPNHRGINCFF [ANKRD44] | 2.66 ± 0.032 | 2.82 ± 0.5 | – | –
7 | CGKCFSQNTHLTRHQRTHTGEKPY [ZNF263] | 2.94 ± 0.16 | 3.22 ± 0.14 | – | –
8 | CHRRYSCAHCRAHLANHDDLISKS [YPEL3] | 2.44 ± 0.46 | 2.81 ± 0.4 | – | –
9 | CHSHTVVQDYSYFFFLRMDENYNL [CCDC3] | 2.49 ± 0.68 | 2.4 ± 0.63 | – | –
10 | CIMDDAINILQNEKSHQVLAQLLD [INTS4] | 2.18 ± 0.21 | 2.37 ± 0.23 | – | –
11 | CIQQILEAVLHCHQMGVVHRDLKP [CAMK2A] | 2.75 ± 0.32 | 3.03 ± 0.36 | – | –
12 | CKICGRTFFPVALKKHGPICQKTA [ZC2HC1A] | 3.58 ± 0.063 | 3.92 ± 0.38 | – | –
13 | CLAHLGEKVSQELKEPLHKALQML [BCL2L13] | 2.26 ± 0.28 | 2.16 ± 0.26 | – | –
14 | CPPPPGPAAAPEGDWARLLEQMGA [ZBED3] | 3.53 ± 0.18 | 3.58 ± 0.84 | – | –
15 | CQVFPERLAQGNPQQGFFSSFFTC [ATP23] | 2.07 ± 0.29 | 2.14 ± 0.33 | – | –
16 | CRADHGLLLERAAAGSPRSPGPLP [ISL2] | 3.47 ± 0.46 | 3.1 ± 0.43 | – | –
17 | CRGHTLERSVFSERTEESSAVQYF [CARM1] | 2.81 ± 0.34 | 2.92 ± 0.5 | – | –
18 | CRGNQHDVPVIPLDVVDNQTEKLD [CASP6] | 5.05 ± 0.26 | 5.03 ± 0.13 | – | –
19 | CRNGSSIQIAFEEVPQLPPRASIS [C2CD2L] | 3.03 ± 0.34 | 2.98 ± 0.16 | – | –
20 | CSMSATFTLNFFRSGIQFGSWGSF [CLCN6] | 3.01 ± 0.57 | 2.75 ± 0.14 | – | –
21 | CTEGPIDLVFVIDGSKSLGEENFE [MATN2] | 2.72 ± 0.29 | 2.52 ± 0.59 | – | –
22 | CTGLKKAHRTEFYRNLTHNPPSDF [STK38L] | 2.85 ± 0.09 | 2.87 ± 0.28 | – | –
23 | CTRDCMSFSVLNWDQVSRLHEVLT [TENT5C] | 2.13 ± 0.35 | 2.37 ± 0.23 | – | –

Row | Sequence | protein stability index [1] | protein stability index [2] | protein stability index (treatment: DMSO, c terminus: native) | protein stability index (treatment: MLN4924 1 uM, 8 h, c terminus: native)
24 | CVTLMQGHEGSVSSCHFARDSSFL [WDR88] | 2.28 ± 0.57 | 2.39 ± 0.13 | – | –
25 | CYRSQDYGGRSVAPQNSFSAKLAP [KCNK9] | 3.04 ± 0.092 | 3.19 ± 0.36 | – | –
26 | DAAVVRPGFLSTAEEETLSRELEP [ALKBH7] | 5.53 ± 0.063 | 5.42 ± 0.17 | – | –
27 | DAAYRKALDLAREFLPQGPVAMRV [AUH] | 2.25 ± 0.64 | 2.19 ± 0.33 | – | –
28 | DAGGIPRTAQSEETRVWHRRDGKW [CAMK2A] | 4.92 ± 0.13 | 4.86 ± 0.1 | – | –
29 | DCLLCFPETLPESSLFSVEANSSN [C8orf76] | 3.58 ± 0.29 | 3.58 ± 0.6 | – | –
30 | DDLTVVDAASLRRQIIKLNRRLQL [MFF] | 2.49 ± 0.27 | 2.9 ± 0.65 | – | –
31 | DDRNTACHHGLVADSLQASMEKDA [DLC1] | 5.15 ± 0.13 | 5.16 ± 0.16 | – | –
32 | DDYPSRGYSDRDGYGRDRDYSDHP [RBMX] | 4.85 ± 0.3 | 4.87 ± 0.22 | – | –
33 | DEKYSIEPSWECKFDHIEVRDGPF [NETO1] | 3.78 ± 0.35 | 3.9 ± 0.17 | – | –
34 | DETHPYTVTSVSCCHGNTLLAVRS [NEK8] | 2.47 ± 0.12 | 2.67 ± 0.076 | – | –
35 | DEVQIGPETVMTTLYTAKKYAVPA [BTBD1] | 3.67 ± 0.32 | 3.55 ± 0.41 | – | –
36 | DFLIHPPERSDLTLYLIVALATVS [PCDHGC5] | 2.75 ± 0.41 | 2.44 ± 0.25 | – | –
37 | DGASVNENHEIYMKDSMSAAEVGT [EPB41L3] | 5.31 ± 0.28 | 5.34 ± 0.32 | – | –
38 | DGENVFTGQSKIYSYMSPNKCSGM [KMT5A] | 3.3 ± 0.29 | 3.3 ± 0.14 | – | –
39 | DGKGKINKEYIKRLLMSQADKMTA [MYL5] | 2.97 ± 0.25 | 3.13 ± 0.33 | – | –
40 | DGKLSFEEFKAYFADGVLSGEELH [NECAB1] | 4.23 ± 0.28 | 4.14 ± 0.37 | – | –
41 | DGTGASQEPPTTDSQEAQSPGHSS [TOR1AIP2] | 5.56 ± 0.26 | 5.54 ± 0.24 | – | –
42 | DHEDNDKMNDSEGMDPERLKAFNM [NOL4L] | 5.46 ± 0.12 | 5.34 ± 0.34 | – | –
43 | DIVLMAQALEKIFLQKVAQMPQEE [BRD3] | 2.36 ± 1.6 | 3 ± 1 | – | –
44 | DIVWGKIHGFPWWPARVLDISLGQ [PWWP2B] | 2.7 ± 0.86 | 2.38 ± 0.42 | – | –
45 | DKLRALKSQRQPRTSPSCAFRSDD [CDC14A] | 4.14 ± 0.23 | 4.15 ± 0.11 | – | –
46 | DKNVQVVELPIVDSLHPRPPYLPL [FUT8] | 3.2 ± 0.29 | 3.35 ± 0.28 | – | –

Row | Sequence | protein stability index [1] | protein stability index [2] | protein stability index (treatment: DMSO, c terminus: native) | protein stability index (treatment: MLN4924 1 uM, 8 h, c terminus: native)
47 | DLLTFVQNLCKGLSQPTTNLVAGC [NEUROD6] | 3 ± 1 | 2.47 ± 0.33 | – | –
48 | DLYALKSVKIPVRNHGILMETHKE [LYSMD4] | 3.02 ± 0.14 | 3.25 ± 0.12 | – | –
49 | DMCMKVPDDPEHLAARRQWRDECL [CRYL1] | 4.47 ± 0.22 | 4.56 ± 0.2 | – | –
50 | DMLLEKLPQVAEEISGPLTSANKI [FLOT1] | 4.15 ± 0.19 | 4.43 ± 0.16 | – | –
51 | DMSIGGNLSKTQNMERFGEDNLED [CDC14A] | 5.27 ± 0.14 | 5.34 ± 0.21 | – | –
52 | DMVEFLLEQCSASIEVGGSVNFDG [FEM1C] | 2.17 ± 0.76 | 2.4 ± 0.24 | – | –
53 | DPGADSEKSTVVEGGEVRFNGKGK [DLX1] | 5.51 ± 0.22 | 5.58 ± 0.18 | – | –
54 | DPIIDSWEVVTSMGTQRCDAGVCV [KLHL12] | 3 ± 0.21 | 2.95 ± 0.39 | – | –
55 | DPQILQMLKEEHQIILENQKNFGL [RAD54B] | 3.25 ± 0.3 | 3.812 ± 0.008 | – | –
56 | DQNRDGFIDKEDLKDTYASLGKTN [MYL5] | 5.12 ± 0.092 | 5.2 ± 0.14 | – | –
57 | DSAQFTKALAIILHLLYLLEKVEC [FEM1A] | 2.22 ± 0.33 | 2.11 ± 0.34 | – | –
58 | DSEQVPQALRRLRPRTRKVKSVSP [NCF4] | 5.21 ± 0.25 | 5.11 ± 0.24 | – | –
59 | DSKSLKTHQTQPGIRRARDKALSG [NET1] | 4.63 ± 0.16 | 4.7 ± 0.18 | – | –
60 | DSPSKEEVFRFVQSCARAVVPSYI [CPOX] | 2.48 ± 0.55 | 2.5 ± 0.32 | – | –
61 | DSQDLVASFRVTTGTSNTTAIKSI [RBBP5] | 3.46 ± 0.24 | 3.59 ± 0.26 | – | –
62 | DSQRVASVSLDRCIKIWDVTSQAT [WDR88] | 3.1 ± 0.22 | 3.12 ± 0.17 | – | –
63 | DSSHDSARASEGSDSGSDKSLEGG [SMG5] | 5.54 ± 0.31 | 5.51 ± 0.31 | – | –
64 | DTINRSVLDFDFEKLCSISLSHIN [USP39] | 2.6 ± 0.32 | 2.79 ± 0.24 | – | –
65 | DTISTIKSVAWEGGACPAFLPSLR [NCF4] | 2.92 ± 0.3 | 2.9 ± 0.38 | – | –
66 | DTTRVENLIKSENYGKILVEKNEH [R3HDM1] | 4.46 ± 0.089 | 4.4 ± 0.1 | – | –
67 | DVEVPASVTGYSFASDGDSGTCSP [ADD1] | 5.16 ± 0.19 | 5.29 ± 0.11 | – | –
68 | DVIQALDLSVPLMDVGETAMVTAD [FKBP8] | 3.41 ± 0.29 | 3.53 ± 0.19 | – | –
69 | DVTCNEFFFDRNPGAFGTILTFLR [KCNG1] | 2.59 ± 0.33 | 2.65 ± 0.12 | – | –

Row | Sequence | protein stability index [1] | protein stability index [2] | protein stability index (treatment: DMSO, c terminus: native) | protein stability index (treatment: MLN4924 1 uM, 8 h, c terminus: native)
70 | DYKLLKPSLAVNLADPYRSLKAPG [JUNB] | 3.41 ± 0.35 | 3.35 ± 0.14 | – | –
71 | DYSASEYRWHINFTTFFIDCMAAL [SCD] | 2.54 ± 0.17 | 2.63 ± 0.47 | – | –
72 | DYWLRRFEAEPLPENTNRQLLLQF [PI4K2A] | 2.41 ± 0.21 | 2.35 ± 0.27 | – | –
73 | EAARLEYDAYRTDLEELSLGPRDA [ARFIP2] | 4.78 ± 0.15 | 4.86 ± 0.15 | – | –
74 | EACGRCEEVPEAYVDIHTGLSGSG [PYCR3] | 4.29 ± 0.67 | 4.57 ± 0.11 | – | –
75 | EAETPPNGPDCGYGSFHQQYWLDG [ATE1] | 3.89 ± 0.31 | 4.15 ± 0.11 | – | –
76 | EAFQIVLSHLLGDAGSPYLIGLIS [SPNS1] | 3.11 ± 0.37 | 2.98 ± 0.41 | – | –
77 | EALSVPLSLCVSSHLALPAQHHWE [CLPTM1] | 2.15 ± 0.27 | 2.2 ± 0.29 | – | –
78 | EDIALNKHRSRRKWCFWNSSPAVA [RHOBTB1] | 2.31 ± 0.22 | 2.28 ± 0.23 | – | –
79 | EDLMPLAAAYGHALEQYEGESWRE [P3H4] | 4.59 ± 0.53 | 4.86 ± 0.17 | – | –
80 | EDPSFWDCFCFTEEIPIRNGTKS [AASDHPPT] | – | – | 3.92 ± 0.12 | 4.22 ± 0.22
81 | EDQAEAWGCSCCPPETKHQALSGT [TSPAN10] | 4.71 ± 0.31 | 4.67 ± 0.18 | – | –
82 | EEEEEEEAAGVVVEEELFHQQGTP [LMNB1] | 5.38 ± 0.31 | 5.47 ± 0.41 | – | –
83 | EEEVVEGEKEVEALKKSADWVSDW [BNIP3L] | 5.08 ± 0.25 | 5.36 ± 0.34 | – | –
84 | EEFIATIRAAKGLDQALKEGGKLP [ZC2HC1A] | 3.98 ± 0.22 | 3.93 ± 0.16 | – | –
85 | EEQVILTEKDLLEDGFGEHPFYHC [SAT1] | 3.95 ± 0.24 | 4.15 ± 0.42 | – | –
86 | EERAKAKHLARQLEEKDRVLKKQD [CHCHD3] | 5.51 ± 0.14 | 5.42 ± 0.16 | – | –
87 | EERQAAQNECQVLKLLNHPNVIEY [NEK8] | 4.01 ± 0.16 | 4.29 ± 0.11 | – | –
88 | EEWGQLDPTQRILYRDVMLETFGH [ZNF8] | 2.91 ± 0.32 | 3.22 ± 0.38 | – | –
89 | EFPESRKPISTKSQFLKHQQTHNI [ZNF649] | 3.72 ± 0.47 | 3.57 ± 0.5 | – | –
